In US20200000932A1:

Target: bovine submaxillary mucin (BSM) (bovine)
Assay: BSM ELISA on BSM-coated wells, periodate-sensitive signal (periodate-treated wells subtracted)

B1: hSIA103 (antibody, human IgG1, kappa, V domains shown)
VH: QVQLVQSGAEVKKPGASVKVSCKASGYTFTDHAIHWVRQAPGQGLEWMGYISPGNGDIKYNEKFKDRVTMTADKSSSTAYMQLRSLRSDDTAVYFCKRSLLALDYWGQGTLVTVSS
VL: DIQMTQSPSSLSASVGDRVTITCKASQDVGTNIAWYQQKPGKAPKVLIYSASTRHTGVPSRFSGSGSGTDFTLTISSLQPEDFATYFCQQYSSFPLTFGQGTKVEIKR
Work on B1 yielded an EC50 of 1.8 nM.

B2: hSIA101 (antibody, human IgG1, kappa, V domains shown)
VH: EVQLVQSGAEVKKPGASVKVSCKASGYTFTDHAIHWVRQAPGQGLEWMGYFSPGNDDIKYNEKFRGRVTMTADKSSSTAYMELRSLRSDDTAVYFCKRSLSTPYWGQGTLVTVSS
VL: DIVMTQSPDSLAVSLGERATINCKSSQSLLNRGNHKNYLTWYQQKPGQPPKLLIYWASTRESGVPDRFSGSGSGTDFTLTISSLQAEDVAVYYCQNDYTYPYTFGQGTKVEIKR
In the case of B2, the EC50 is reported as 4.2 nM.
